8 molecules from patent publication US20190077863A1 (AERPIO PHARMACEUTICALS, published 2019) can be followed below.

Numbering of substitutions follows the chain as printed. Names may count otherwise.

Experiment [1] concerns the target T1, Human VE-PTP (HPTP-β) containing first eight FN3 repeats with C-terminal His6 tag (Human ½ VE-PTP ECD) (human, UniProt P23467 23-820).
T1 construct: Produced in HEK293 cells and purified by the His tag; it was not cut off; also called Human Beta ½ ECD
T1 sequence: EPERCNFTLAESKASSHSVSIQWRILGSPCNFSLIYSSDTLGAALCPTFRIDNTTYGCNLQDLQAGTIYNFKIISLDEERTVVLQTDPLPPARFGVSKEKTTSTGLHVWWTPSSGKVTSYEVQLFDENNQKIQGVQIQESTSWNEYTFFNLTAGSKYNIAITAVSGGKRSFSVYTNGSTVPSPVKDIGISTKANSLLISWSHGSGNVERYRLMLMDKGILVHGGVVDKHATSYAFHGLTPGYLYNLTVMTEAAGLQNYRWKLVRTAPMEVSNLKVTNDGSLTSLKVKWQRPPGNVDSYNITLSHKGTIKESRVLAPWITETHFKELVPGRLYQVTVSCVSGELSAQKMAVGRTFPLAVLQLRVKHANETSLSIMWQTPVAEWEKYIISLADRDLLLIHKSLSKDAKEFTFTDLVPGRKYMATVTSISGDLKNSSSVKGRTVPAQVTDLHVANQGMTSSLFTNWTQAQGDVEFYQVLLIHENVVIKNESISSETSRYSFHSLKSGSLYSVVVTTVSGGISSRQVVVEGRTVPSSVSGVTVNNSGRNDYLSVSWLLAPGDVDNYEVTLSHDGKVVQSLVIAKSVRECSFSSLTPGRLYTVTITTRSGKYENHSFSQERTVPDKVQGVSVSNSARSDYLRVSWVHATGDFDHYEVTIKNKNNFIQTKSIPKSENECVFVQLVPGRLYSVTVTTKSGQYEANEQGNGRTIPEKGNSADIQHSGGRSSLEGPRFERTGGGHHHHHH
Put plainly: ELISA: HPTP-β antigen coated on the plate, antibody serially diluted (10,000 to 9.765 ng/mL), goat anti-human HRP (Fc specific), OD 450 nm. The method, then: (§1) Each humanized variant was measured for affinity to the antigen, human VE-PTP (HPTP-β), using ELISA. […] of the VE-PTP (HPTP-β) antigen were immobilized onto 96-well Maxisorp plates in coating buffer (0.5 mM NaHCO₃ brought to pH 9.6 by the addition of 0.5 mM Na₂CO₃) overnight at 4° C. The coating buffer was then removed and 200 μL/well of block solution (3% w/v semi-skimmed milk powder, PBS) was added and agitated for 2 hrs at room temperature. The plate was washed four times with PBS-T (1% v/v Tween 20). 100 μL/well was added of purified R15E6 variants serially diluted from 10,000 ng/mL to 9.765 ng/mL in PBS-TB (0.05% v/v Tween 20, 0.5% w/v BSA). Following agitation for 2 hrs at room temperature, the plate was washed 4× with PBS-T. 100 μL/well goat anti-human HRP (Fc specific) at a ratio of 1:60,000 PBS was then added and the plates were incubated for an additional hour with agitation at room temperature. The plate was then washed 6× with PBS-T and once in PBS. Next, 100 μL/well of TMB substrate solution was added and incubated at 37° C. for 10 min. 50 μL 1 M HCl was added per well and the plate immediately read at 450 nm on a Tecan Sunrise plate reader. […] The binding of the HC4 variants was much lower than with the other heavy chains variants compared to HC0LC0 (FIG. 17).

Experiment [2] deals with T1, Human VE-PTP (HPTP-β) containing first …. The experiment can be described thus: ELISA: HPTP-β antigen coated on the plate, antibody serially diluted, goat anti-human HRP (Fc specific), OD 450 nm. The method, then: as §1
Experiment [3] has the same target. Put plainly: ELISA, coated antigen, antibody 10,000 to 9.765 ng/mL. The method, then:
as §1

The target is the same in experiment [4]. The experiment can be described thus: SPR (Biacore 3000), antibody captured on anti-human IgG, antigen as analyte 25-0 nM. On the procedure: (§2) Samples of each variant were further assessed by Biacore analysis to determine the binding affinity. Antibody binding experiments were performed on Biacore 3000™ at 25° C. Assay buffer: 10 mM HEPES buffer (pH 7.4), 150 mM NaCl, 3 mM EDTA, 0.05% P20 (polyoxyethylenesorbitan). […] Conjugation buffer: 10 mM sodium acetate buffer (pH 5). The flow rate used for capturing the ligand was 5 μL/min. The flow rate for the kinetic analysis was 50 μL/min. Flow cell 1 and […] of the CM5 chip were coated with maximum amounts of goat anti-human IgG. Approximately 150 RU of the test antibody was captured on flow cell 2, 3, and 4 as indicated. The antigen was flowed over the chip. Binding of the antigen to the antibodies was monitored in real time. The KD was determined from the observed kₒₙ and koff values.

Experiment [5] shares this target. Put plainly: SPR (Biacore 3000), antibody captured on anti-human IgG, antigen as analyte 100 nM (single concentration). The method, then:
as §2
A scouting analysis was performed using single analyte concentrations as indicated. At these concentrations, binding can be observed even if the ligand binding is weak. Flow cell 1 response was used for reference subtraction.

B1: humanized R15E6 variant HC1LC1 (antibody, human IgG4 S228P, kappa, V domains shown)
VH: EVQLVESGGGLVQPGGSLKLSCAASGFTFNANAMNWVRQASGKGLEWVGRIRTKSNNYATYYAGSVKDRFTISRDDSKNTAYLQMNSLKTEDTAAYYCVRDYYGSSAWITYWGQGTLVTVSS
VL: DVVMTQSPSFLSASVGDRVTITCKASQHVGTAVAWYQQRPGKAPKLLIYWASTRHTGVPSRFSGSGSGTEFTLTISSLQPEDFATYFCQQYSSYPFTFGGGTKLEIKR
notes: Human IgG4 (S228P) / kappa, expressed in CHO cells; Signal peptides left out by range; also called VH1-VL1
For the molecule B1, the binding result in experiment [1] is listed as “binds”.

B2: humanized R15E6 variant HC3LC3 (antibody, human IgG4 S228P, kappa, V domains shown)
VH: B1 VH with G16R, K19R, A23T, S41P, T80I, A95V
VL: B1 VL with V2I, V3Q, S9F, F10S, R39K, E70D
notes: Human IgG4 (S228P) / kappa, expressed in CHO cells; Signal peptides left out by range; also called VH3-VL3
Regarding B2, the binding result in experiment [2] is given as “binds”.

B3: humanized R15E6 variant HC4LC4 (antibody, human IgG4 S228P, kappa, V domains shown)
VH: LVQLVESGGGLVKPGGSLRLSCAASGFTFNANAMNWIRQAPGKGLEWVSRIRTKSNNYATYYAGSVKDRFTISRDNAKNSLYLQMNSLRAEDTAVHYCVRDYYGSSAWITYWGQGTLVTVSS
VL: DIVMTQSPDSLAVSLGERATINCKASQHVGTAVAWYQQKPEQPPKLLIYWASTRHTGVPDRFSGSGSGTDFTLTISSLQAEDVAVYYCQQYSSYPFTFGGGTKVEIKR
notes: Human IgG4 (S228P) / kappa, expressed in CHO cells; Signal peptides left out by range; also called VH4-VL4
For B3, the binding result in experiment [3] was “binds”.

B4: humanized R15E6 variant HC3LC1 (antibody, human IgG4 S228P, kappa, V domains shown)
VH: B1 VH with G16R, K19R, A23T, S41P, T80I, A95V
VL: B1 VL
notes: Human IgG4 (S228P) / kappa, expressed in CHO cells; Signal peptides left out by range; also called VH3-VL1
For the molecule B4, the binding result in experiment [2] is on record as “binds”.

B5: humanized R15E6 variant HC1LC3 (antibody, human IgG4 S228P, kappa, V domains shown)
VH: B1 VH
VL: B1 VL with V2I, V3Q, S9F, F10S, R39K, E70D
notes: Human IgG4 (S228P) / kappa, expressed in CHO cells; Signal peptides left out by range; also called VH1-VL3
In the case of B5, in experiment [1], the binding result is given as “binds”.

B6: humanized R15E6 variant HC3LC2 (antibody, human IgG4 S228P, kappa, V domains shown)
VH: B1 VH with G16R, K19R, A23T, S41P, T80I, A95V
VL: B3 VL with E41G, G100Q, V104L
notes: Human IgG4 (S228P) / kappa, expressed in CHO cells; Signal peptides left out by range; also called VH3-VL2
In experiment [4], B6 gave a Ka of 4.3e+07 M⁻¹, a Kd of 23.2 nM, a koff of 0.00123 s⁻¹ and a kon of 53900 M⁻¹ s⁻¹. In experiment [5], this molecule returned a Ka of 2.06e+08 M⁻¹, a Kd of 4.84 nM, a koff of 0.000993 s⁻¹ and a kon of 205000 M⁻¹ s⁻¹.

B7: humanized R15E6 variant HC4LC1 (antibody, human IgG4 S228P, kappa, V domains shown)
VH: B3 VH
VL: B1 VL
notes: Human IgG4 (S228P) / kappa, expressed in CHO cells; Signal peptides left out by range; also called VH4-VL1
Regarding B7, the binding result in experiment [3] was “binds”.

B8: humanized R15E6 variant HC4LC2 (antibody, human IgG4 S228P, kappa, V domains shown)
VH: B3 VH
VL: B3 VL with E41G, G100Q, V104L
notes: Human IgG4 (S228P) / kappa, expressed in CHO cells; Signal peptides left out by range; also called VH4-VL2
As to B8, the binding result in experiment [3] is listed as “binds”.
